In the data set the test system is SwaI restriction endonuclease (native) (Staphylococcus warneri). Briefly: cleavage_in_vitro. The following applies: more than 544,000 units in Source-15S fractions 17-19; restriction activity assayed on M13mp19 RF DNA.

With M13mp19 RF DNA, the activity is 544000 units.

(Values after patent publication US6245545.)
